# In FireProtDB (doi:10.1110/ps.5101):
# B1: Cytochrome c-551, P00099 (parent)
# chain: MKPYALLSLLATGTLLAQGAWAEDPEVLFKNKGCVACHAIDTKMVGPAYKDVAAKFAGQAGAEAELAQRIKNGSQGVWGPIPMPPNAVSDDEAQTLAKWVLSQK
# Variants of: B1
# Settings: Pseudomonas aeruginosa (strain ATCC 15692 / DSM 22644 / CIP 104116 / JCM 14847 / LMG 12228 / 1C / PRS 101 / PAO1); pH 7; 10 °C; GdnHCl; Fluorescence; sodium phosphate 50 mM; reversible: yes; structure 451C; whole UniProt chain shown
Variant,ddG of mutation (higher = less stable) [kcal/mol],denaturant m value [kcal/mol/M],denaturant midpoint (higher = more stable) [M],unfolding free energy [kcal/mol]
E92Q,-0.2,3.4,1.8,6.3
E92V,0.3,3.3,1.8,5.8
